Experiment [1] addresses human FcRn beta-2-microglobulin complex, biotinylated, coupled to streptavidin Sepharose (human) (UniProt P55899). In words: FcRn affinity chromatography, pH gradient 5.5 to 8.8; unlabelled antibody.
Experiment [2] shares this target. The experiment is described as follows: FcRn affinity chromatography, pH gradient 5.5 to 8.8; dye-labelled antibody.

human FcRn beta-2-microglobulin complex, biotinylated, coupled to streptavidin Sepharose (human), sequence (P55899 24-297 limits assumed, chain 1 of 2): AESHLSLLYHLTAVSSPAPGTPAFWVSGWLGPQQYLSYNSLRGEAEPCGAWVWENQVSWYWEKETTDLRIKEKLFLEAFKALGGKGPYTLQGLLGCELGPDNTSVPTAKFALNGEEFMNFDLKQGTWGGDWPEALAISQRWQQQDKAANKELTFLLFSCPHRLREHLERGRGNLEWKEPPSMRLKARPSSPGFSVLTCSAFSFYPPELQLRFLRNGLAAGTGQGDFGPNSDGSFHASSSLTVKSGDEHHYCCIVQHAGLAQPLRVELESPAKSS
human FcRn beta-2-microglobulin complex, biotinylated, coupled to streptavidin Sepharose (human), sequence (P61769 21-119 limits assumed, chain 2 of 2, further chain): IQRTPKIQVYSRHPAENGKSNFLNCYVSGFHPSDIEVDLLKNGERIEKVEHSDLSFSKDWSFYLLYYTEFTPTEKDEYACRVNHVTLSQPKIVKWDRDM
Ixekizumab, labelled with pHAb dye (antibody), sequence (HC): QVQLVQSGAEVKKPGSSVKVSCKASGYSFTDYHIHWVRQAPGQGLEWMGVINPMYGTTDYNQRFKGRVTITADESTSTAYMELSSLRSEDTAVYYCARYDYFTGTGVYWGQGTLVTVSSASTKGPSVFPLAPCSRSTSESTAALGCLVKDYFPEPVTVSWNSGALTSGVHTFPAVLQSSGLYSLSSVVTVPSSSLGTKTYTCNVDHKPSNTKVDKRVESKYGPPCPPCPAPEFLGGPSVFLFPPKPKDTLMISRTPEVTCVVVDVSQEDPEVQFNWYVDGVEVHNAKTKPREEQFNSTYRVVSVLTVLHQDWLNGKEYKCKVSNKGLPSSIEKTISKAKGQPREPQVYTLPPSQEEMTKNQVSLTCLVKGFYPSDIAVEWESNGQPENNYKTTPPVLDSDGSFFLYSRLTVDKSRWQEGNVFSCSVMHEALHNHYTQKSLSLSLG
Ixekizumab, labelled with pHAb dye (antibody), sequence (LC): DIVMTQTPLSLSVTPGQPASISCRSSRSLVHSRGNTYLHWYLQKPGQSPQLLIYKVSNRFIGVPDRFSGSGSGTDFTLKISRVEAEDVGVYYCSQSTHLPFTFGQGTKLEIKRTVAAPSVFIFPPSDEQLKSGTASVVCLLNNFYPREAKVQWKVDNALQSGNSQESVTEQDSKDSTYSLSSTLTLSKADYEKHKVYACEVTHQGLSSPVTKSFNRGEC
Avelumab, labelled with pHAb dye (antibody), sequence (HC): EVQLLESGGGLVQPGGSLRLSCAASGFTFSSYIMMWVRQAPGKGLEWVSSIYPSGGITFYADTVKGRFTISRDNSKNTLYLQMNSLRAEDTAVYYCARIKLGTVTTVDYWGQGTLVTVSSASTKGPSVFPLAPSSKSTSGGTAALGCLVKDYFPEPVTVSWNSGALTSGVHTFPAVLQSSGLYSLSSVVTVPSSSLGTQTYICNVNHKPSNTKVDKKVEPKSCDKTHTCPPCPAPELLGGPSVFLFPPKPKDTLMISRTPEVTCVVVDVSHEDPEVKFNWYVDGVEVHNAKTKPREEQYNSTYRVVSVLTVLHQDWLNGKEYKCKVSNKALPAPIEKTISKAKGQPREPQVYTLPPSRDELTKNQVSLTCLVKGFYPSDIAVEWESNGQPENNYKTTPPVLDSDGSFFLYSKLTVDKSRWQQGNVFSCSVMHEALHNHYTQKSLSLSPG
Avelumab, labelled with pHAb dye (antibody), sequence (LC): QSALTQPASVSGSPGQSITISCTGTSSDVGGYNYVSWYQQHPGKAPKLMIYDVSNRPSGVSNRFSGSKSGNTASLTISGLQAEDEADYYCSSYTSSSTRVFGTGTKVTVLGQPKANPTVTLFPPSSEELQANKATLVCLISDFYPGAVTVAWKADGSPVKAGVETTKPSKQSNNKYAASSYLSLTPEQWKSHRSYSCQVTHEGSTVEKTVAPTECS
Ustekinumab (antibody), sequence (HC): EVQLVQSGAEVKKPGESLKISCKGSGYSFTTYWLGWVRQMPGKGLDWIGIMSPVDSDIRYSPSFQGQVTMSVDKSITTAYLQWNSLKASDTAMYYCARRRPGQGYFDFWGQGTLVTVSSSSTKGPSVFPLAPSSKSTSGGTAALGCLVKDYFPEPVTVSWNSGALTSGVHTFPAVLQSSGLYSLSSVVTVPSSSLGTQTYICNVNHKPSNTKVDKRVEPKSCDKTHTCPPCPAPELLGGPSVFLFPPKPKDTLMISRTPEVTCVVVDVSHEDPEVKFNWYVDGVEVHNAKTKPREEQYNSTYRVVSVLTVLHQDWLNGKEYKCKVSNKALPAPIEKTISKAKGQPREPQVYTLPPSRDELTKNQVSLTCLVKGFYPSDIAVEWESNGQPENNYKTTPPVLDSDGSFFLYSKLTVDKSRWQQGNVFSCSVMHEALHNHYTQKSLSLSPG
Ustekinumab (antibody), sequence (LC): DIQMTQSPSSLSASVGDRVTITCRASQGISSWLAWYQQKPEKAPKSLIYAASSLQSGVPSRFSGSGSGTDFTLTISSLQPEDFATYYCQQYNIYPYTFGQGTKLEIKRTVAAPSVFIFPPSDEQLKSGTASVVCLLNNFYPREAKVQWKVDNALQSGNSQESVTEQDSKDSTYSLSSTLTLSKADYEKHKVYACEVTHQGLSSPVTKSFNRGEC

On to Adalimumab (antibody), for which the relative retention time on FcRn affinity column (relative to anti-Her3 antibody standard) in experiment [1] came out at 0.93.

The substance “Adalimumab, labelled with pHAb dye (antibody)” had a relative retention time on FcRn affinity column (relative to anti-Her3 antibody standard) in experiment [2] of 0.84.

On to Avelumab (antibody), for which the relative retention time on FcRn affinity column (relative to anti-Her3 antibody standard) in experiment [1] worked out at 1.27. As for “Avelumab, labelled with pHAb dye (antibody)”, the relative retention time on FcRn affinity column (relative to anti-Her3 antibody standard) in experiment [2] came to 1.25.

With “Ixekizumab, labelled with pHAb dye (antibody)”, the relative retention time on FcRn affinity column (relative to anti-Her3 antibody standard) in experiment [2] amounted to 1.33. In turn, Motavizumab WT (antibody) registered a relative retention time on FcRn affinity column (relative to anti-Her3 antibody standard) in experiment [1] of 0.5.

Substance “Motavizumab WT, labelled with pHAb dye (antibody)” showed a relative retention time on FcRn affinity column (relative to anti-Her3 antibody standard) in experiment [2] of 0.42. Take Motavizumab-YTE (antibody): the relative retention time on FcRn affinity column (relative to anti-Her3 antibody standard) in experiment [1] stood at 4.52. Regarding “Motavizumab-YTE, labelled with pHAb dye (antibody)”, in experiment [2], the relative retention time on FcRn affinity column (relative to anti-Her3 antibody standard) came to 4.88.

In experiment [1], Nivolumab (antibody) showed a relative retention time on FcRn affinity column (relative to anti-Her3 antibody standard) of 0.49. Regarding “Nivolumab, labelled with pHAb dye (antibody)”, the relative retention time on FcRn affinity column (relative to anti-Her3 antibody standard) in experiment [2] was found to be 0.39.

Regarding Ofatumumab (antibody), the relative retention time on FcRn affinity column (relative to anti-Her3 antibody standard) in experiment [1] is 0.72. As to “Ofatumumab, labelled with pHAb dye (antibody)”, the relative retention time on FcRn affinity column (relative to anti-Her3 antibody standard) in experiment [2] came to 0.67. In experiment [1], Palivizumab (antibody) came in with a relative retention time on FcRn affinity column (relative to anti-Her3 antibody standard) of 0.31. “Palivizumab, labelled with pHAb dye (antibody)” yielded a relative retention time on FcRn affinity column (relative to anti-Her3 antibody standard) in experiment [2] of 0.28.

In turn, Reslizumab (antibody) yielded a relative retention time on FcRn affinity column (relative to anti-Her3 antibody standard) in experiment [1] of 0.5. As to “Reslizumab, labelled with pHAb dye (antibody)”, in experiment [2], the relative retention time on FcRn affinity column (relative to anti-Her3 antibody standard) worked out at 0.41. In turn, Ustekinumab (antibody) yielded a relative retention time on FcRn affinity column (relative to anti-Her3 antibody standard) in experiment [1] of 0.48.

“Ustekinumab, labelled with pHAb dye (antibody)” returned a relative retention time on FcRn affinity column (relative to anti-Her3 antibody standard) in experiment [2] of 0.41.

For the origin of these results see US20230194547A1.
